# Measured values published in patent US20240368295A1 (SUTRO BIOPHARMA, published 2024).
# T1: BCMA on BCMA-positive NCI-H929, ARP-1 and U266B1 cells (human, UniProt Q02223 1-184)
# T1 construct: they are human cell lines; also called B-cell maturation antigen; TNFRSF17
# T1 sequence: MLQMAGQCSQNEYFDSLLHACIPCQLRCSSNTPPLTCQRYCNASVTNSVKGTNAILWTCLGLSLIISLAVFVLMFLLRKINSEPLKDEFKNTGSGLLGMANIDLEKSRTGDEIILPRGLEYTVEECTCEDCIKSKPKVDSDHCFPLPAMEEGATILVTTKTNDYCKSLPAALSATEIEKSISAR
# T2: human BCMA-Fc (human, UniProt Q02223 5-51, limits assumed)
# T2 construct: Bought from R&D Systems; also called huBCMA-Fc; BCMA-Fc (R&D Systems)
# T2 chain (looked up): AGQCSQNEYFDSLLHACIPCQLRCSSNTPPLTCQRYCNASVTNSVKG
# Columns and labels:
# [1] = biological target: T1, BCMA on BCMA-positive NCI-H929, ARP-1 …; test: FACS, NCI-H929 cells
# Experimental: (§1) Variants for which sufficient protein was purified in secondary screening were tested in a fluorescence-activated cell sorting (FACS) cell-binding assay. […] 6-12 point dilutions of anti-BCMA variants starting from concentrations of about 100-200 nM antibody were dispensed into each well using a BioMekFX (Beckman Coulter). Cells were then incubated on ice for 1 hr, washed with FACS buffer and incubated for 1 hr on ice with […] FACS buffer containing […] Alexa647-conjugated Goat Anti-Human IgG dispensed using BioMekFX (Beckman Coulter). Cells were then washed 2× with FACS buffer and fixed for 10 minutes in […] PBS with 2% PFA prior to fluorescence detection. Samples were acquired using a Beckton Dickinson LSRII FACS. Geometric Mean Fluorescence Intensity of BCMA antibody binding was analyzed using FlowJo® software (Trec Star, Inc.).
# [2] = biological target: T1, BCMA on BCMA-positive NCI-H929, ARP-1 …; test: cell-based or functional assay
# [3] = biological target: T3, rat BCMA on 293T-ratBCMA cells (rat); test: FACS, 293T-ratBCMA cells
# T3 construct: whole, on cells
# [4] = biological target: cynomolgus BCMA on 293T-cynoBCMA cells (cynomolgus, UniProt Q02223 1-184 (human entry)); test: FACS, 293T-cynoBCMA cells
# Experimental: as §1
# human BCMA-Fc = biological target: T2, human BCMA-Fc; test: SPR (Biacore), captured antibody
# cynomolgus BCMA on 293T-cynoBCMA cells, sequence (Q02223 other isoform, or with tags, fused parts or gaps): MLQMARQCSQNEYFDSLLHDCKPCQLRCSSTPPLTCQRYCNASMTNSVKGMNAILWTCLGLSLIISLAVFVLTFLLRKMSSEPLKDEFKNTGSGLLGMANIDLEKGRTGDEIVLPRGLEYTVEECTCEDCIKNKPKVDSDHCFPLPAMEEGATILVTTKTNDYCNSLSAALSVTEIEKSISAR
Binder,Bmax (MFI) [1] [MFI],"ARP-1, SC239-conjugated 2° antibody cell killing, EC50 [2] [nM]","ARP-1, SC239-conjugated 2° antibody cell killing, Span [2] [%]","U266B1, SC239-conjugated 2° antibody cell killing, EC50 [2] [nM]","U266B1, SC239-conjugated 2° antibody cell killing, Span [2] [%]",Bmax (MFI) [3] [MFI],Bmax (MFI) [4] [MFI],binding result (human BCMA-Fc)
"9E12 (antibody, V domains shown, chicken HybriFree-derived antibody; also called Antibody 43) VH: AVTLDESGGGLQTPGGGLSLVCKASGFTFSDYGLGWMRQAPGKGLEYVARINSAGSGTYYGSAVDGRATISRDNGQSTVRLQLNNLRAEDTGTYYCTRGGGGASIDGWGHGTEVIVSS VL: ALTQPSSVSANPGETVKITCSGGGSYYGSYYYGWYQQKSPGSAPVTLIYNNNNRPSDIPSRFSGSTSGSTGTLTITGVRAEDEAVYYCGSFDSSTDAIFGAGTTLTVL",8140,1.2,80,1.4,47,4690,13200,–
"10H1 (antibody, V domains shown, chicken HybriFree-derived antibody; also called Antibody 45) VH: AVTLDESGGGLQTPGGALSLVCKASGFTFSGYGMGWMRQAPGKGLEYVARINSAGSDTDYGAAVKGRATISRDNGQSTVRLQLNNLRAEDTATYFCTRGGGGASIDGWGHGTEVIVSS VL: ALTQPSSVSANPGETVKITCSGGGNYYGSYYYGWYQQKAPGSAPVTVIYNNNNRPSNIPSRFSGSKSGSTGTLTITGVQAEDEAVYFCGGFDSSSDAIFGAGTTLTVL",22500,0.86,88,0.29,89,4350,21200,–
"9A5 (antibody, V domains shown, chicken HybriFree-derived antibody; also called Antibody 42) VH: AVTLDESGGGLQTPGGAVSLVCKASGFSISDYGMGWMRQAPGKGLQYVARIDHDGRYTDYGAVVKGRATISRDNGQSTVRLQLNNLRAEDTGTYYCTRGGGAASIDTWGHGTEVIVSS VL: ALTQPSSVSANPGETVKITCSGGGNYVGGYYYGWYQQKAPGSALVTLIYNNNNRPSNIPSRFSGSTSGSTSTLTITGVRAEDEAVYFCGSFDSSTDAIFGAGTTLTVL",19700,0.7,93,0.29,84,2780,18200,–
"10E10 (antibody, V domains shown, chicken HybriFree-derived antibody; also called Antibody 46) VH: AVTLDESGGGLQTPGGGLSLVCKASGFTFSSYGMGWMRQAPGKGLEFVARINSGGSSYTDYGSAVKGRATISRDDGQSTVRLQLNNLRAEDTGIYYCTRGGGGASIDGWGHGTEVIVSS VL: ALTQPSSVSANPGETVKITCSGGGNYAGSYYYGWYQQKSPGSAPLTVIYNSNNRPSDIPSRFSGSLSGSTGTLTITGVRAEDEAVYFCGGFDSSTDAIFGAGTTLTVL",3440,3,46,2.5,20,906,4540,–
"10F4 (antibody, V domains shown, chicken HybriFree-derived antibody; also called Antibody 37) VH: AVTLDESGGGLQTPGGALSLVCKASGFTFSGYNMGWVRQAPGKGLEYVAGITYGTGSYTAYGAAVKGRATISRDNGQSTLRLQLNNLRAEDTATYYCARGGGLNSYGCSGANIDAWGHGTEVIVSS VL: ALTQPSSVSANLGGTVKITCSGGGNYFGSYYYGWYQQKAPGSAPVTVIYNNNNRPSDIPSRFSGSTSGSTSTLTISGVRAEDEAVYFCGGFDSSTDAIFGAGTTLTVL",18700,1,87,0.36,81,410,12800,no binding (tested: antigen 1-100 nM)
"9H1 (antibody, V domains shown, chicken HybriFree-derived antibody; also called Antibody 44) VH: AVTLDESGGGLQTPGGALSLVCKGSGFTFSDYGMGWMRQAPGKGLQYVARINSAGSDTNYGSAVKGRATISRDDGQSTVRLQLSSLRAEDTGIYYCTRGGGGASIDGWGHGTEVIVSS VL: ALTQPSSVSANPGETVKITCSGGGSYYGSYYYGWYQQKSPGSAPVTLIYNNNNRPSDIPSRFSGSTSGSTGTLTITGVRAEDEAVYYCGSFDSSTDAIFGAGTTLTVL",6160,1.3,74,1.1,50,3450,11400,–
